Experimental data published in US20020037582A1 (published 2002).

B4: original 2.2412 cDNA clone in pACT-2 (nucleotides 694-2664 of FIG. 1, polypeptide of 657 amino acids) (other, not shown: large carriers)
chain: ERLAYEFKGHSLLQAAREADVTRIKKHLSLEMVNFKHPQTHETALHCAAASPYPKRKQICELLLRKGANINEKTKEFLTPLHVASEKAHNDVVEVVVKHEAKVNALDNLGQTSLHRAAYCGHLQTCRLLLSYGCDPNIISLQGFTALQMGNENVQQLLQEGISLGNSEADRQLLEAAKAGDVETVKKLCTVQSVNCRDIEGRQSTPLHFAAGYNRVSVVEYLLQHGADVHAKDKGGLVPLHNACSYGHYEVAELLVKHGAVVNVADLWKFTPLHEAAAKGKYEICKLLLQHGADPTKKNRDGNTPLDLVKDGDTDIQDLLRGDAALLDAAKKGCLARVKKLSSPDNVNCRDTQGRHSTPLHLAAGYNNLEVAEYLLQHGADVNAQDKGGLIPLHNAASYGHVDVAALLIKYNASLNATDKWAFTPLHEAAQKGRTQLCALLLAHGADPTLKNQEGQTPLDLVSADDVSALLTAAMPPSALPSCYKPQVLNGVRSPGATADALSSGPSSPSSLSAASSLDNLSGSFSELSSVVSSSGTEGASSLEKKEVPGVDFSITQFVRNLGLEHLMDIFEREQITLDVLVEMGHKELKEIGINAYGHRHKLIKGVERLISGQQGLNPYLTLNTSGSGTILIDLSPDDKEFQSVEEEMQSTVREHR

What was measured:
[1] = target: Gal4 DNA-BD-Grb14 fusion (full length Grb14, GRB14/pAS2.1) (S. cerevisiae) (UniProt P04386); test: cell-based or functional assay
[2] = target: Gal4 DNA-BD-Grb14 fusion (full length Grb14, GRB14/pAS2.1) (S. cerevisiae, UniProt P04386 1-147; Q14449 1-540); test: cell-based or functional assay
[3] = target: B4; test: yeast two hybrid, liquid- or filter-based beta-galactosidase assays
Excerpt: (§1) These fragments spanned the following regions: N-terminus (“N”. amino acids 1-110), the central region (“C”) encompassing the mig10 homology and the “between PH and SH2” (BPS) domain (amino acids 110-437) and the N-terminal and central regions (“N+C”, amino acids 1-437). These plasmids were individually transformed into the yeast strain Y190 (MATα, ura3-52, his3-200, ade2-101, lys2-801, trp1-901, leu2-3, 112, gal4Δ, gal80Δ, cyh^r2, LYS2::GAL1UAS-HIS3TATA-HIS3, URA3::GAL1UAS-GAL1TATA-lacZ) and expression of the appropriately sized Gal4 DNA-BD fusion proteins confirmed by Western blotting.

[4] = target: B4; test: yeast two hybrid in strain Y190, liquid- or filter-based beta-galactosidase assays
Excerpt: as §1

[5] = target: T1, Gal4 DNA-BD-Grb14 fusion (full length Grb14, GRB14/pAS2.1)
T1 chain: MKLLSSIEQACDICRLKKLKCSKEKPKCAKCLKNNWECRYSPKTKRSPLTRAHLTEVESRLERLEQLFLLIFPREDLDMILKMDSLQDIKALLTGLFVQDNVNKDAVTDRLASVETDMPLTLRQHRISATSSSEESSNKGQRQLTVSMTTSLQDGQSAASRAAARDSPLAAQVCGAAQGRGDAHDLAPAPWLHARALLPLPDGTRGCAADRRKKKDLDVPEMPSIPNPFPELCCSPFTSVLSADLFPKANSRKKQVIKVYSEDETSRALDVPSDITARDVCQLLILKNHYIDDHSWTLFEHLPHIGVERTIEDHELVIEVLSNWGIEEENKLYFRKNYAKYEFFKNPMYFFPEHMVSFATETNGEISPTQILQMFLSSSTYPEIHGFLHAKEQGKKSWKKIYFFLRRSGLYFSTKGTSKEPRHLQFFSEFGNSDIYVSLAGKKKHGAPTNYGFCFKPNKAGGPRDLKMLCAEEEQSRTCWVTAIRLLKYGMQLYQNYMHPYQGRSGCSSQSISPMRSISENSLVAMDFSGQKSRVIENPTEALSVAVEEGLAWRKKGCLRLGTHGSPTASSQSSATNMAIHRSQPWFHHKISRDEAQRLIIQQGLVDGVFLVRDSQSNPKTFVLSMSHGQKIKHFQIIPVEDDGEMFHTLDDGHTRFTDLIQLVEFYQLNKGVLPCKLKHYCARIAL

In the case of “Somatostatin receptor cDNA clone in pACT2”, the Mean RLU (Liquid assay), beta-galactosidase activity [1] is reported as 1450 RLU.

For “Proteosome cDNA clone in pACT2 (from UniProt P04386 768-881)”, the Mean RLU (Liquid assay), beta-galactosidase activity [1] was 388 RLU.

B1: Nedd4 partial cDNA clone in pACT2 (CaLB domain together with the first 22 amino acids of the first WW domain) (other, human, UniProt P46934-4 1-212, looked up, not shown: large carriers)
chain: MATCAVEVFGLLEDEENSRIVRVRVIAGIGLAKKDILGASDPYVRVTLYDPMNGVLTSVQTKTIKKSLNPKWNEEILFRVHPQQHRLLFEVFDENRLTRDDFLGQVDVPLYPLPTENPRLERPYTFKDFVLHPRSHKSRVKGYLRLKMTYLPKTSGSEDDNAEQAEELEPGWVVLDQPDAACHLQQQQEPSPLPPGWEERQDILGRTYYVNH
In the case of B1, the “Mean RLU (Liquid assay), beta-galactosidase activity” value (from here on “Mean RLU (Liquid assay)”) [2] is reported as 2.86e+06 RLU.

B2: Gal4 DNA-BD fusion of the Grb14 central region (amino acids 110-437) in pAS2.1 (other, UniProt P04386 1-147, looked up)
chain: MKLLSSIEQACDICRLKKLKCSKEKPKCAKCLKNNWECRYSPKTKRSPLTRAHLTEVESRLERLEQLFLLIFPREDLDMILKMDSLQDIKALLTGLFVQDNVNKDAVTDRLASVETDMPLTLRQHRISATSSSEESSNKGQRQLTVSIKVYSEDETSRALDVPSDITARDVCQLLILKNHYIDDHSWTLFEHLPHIGVERTIEDHELVIEVLSNWGIEEENKLYFRKNYAKYEFFKNPMYFFPEHMVSFATETNGEISPTQILQMFLSSSTYPEIHGFLHAKEQGKKSWKKIYFFLRRSGLYFSTKGTSKEPRHLQFFSEFGNSDIYVSLAGKKKHGAPTNYGFCFKPNKAGGPRDLKMLCAEEEQSRTCWVTAIRLLKYGMQLYQNYMHPYQGRSGCSSQSISPMRSISENSLVAMDFSGQKSRVIENPTEALSVAVEEGLAWRKKGCLRLGTHGSPTASSQSSATNMAIHRSQ
B2: no binding [3].

B3: Gal4 DNA-BD fusion of the Grb14 N-terminus (amino acids 1-110) in pAS2.1 (other, UniProt P04386 1-147, looked up)
chain: MKLLSSIEQACDICRLKKLKCSKEKPKCAKCLKNNWECRYSPKTKRSPLTRAHLTEVESRLERLEQLFLLIFPREDLDMILKMDSLQDIKALLTGLFVQDNVNKDAVTDRLASVETDMPLTLRQHRISATSSSEESSNKGQRQLTVSMTTSLQDGQSAASRAAARDSPLAAQVCGAAQGRGDAHDLAPAPWLHARALLPLPDGTRGCAADRRKKKDLDVPEMPSIPNPFPELCCSPFTSVLSADLFPKANSRKKQVI
B3: binds [4].

B4 was tested, and the “Mean RLU (Liquid assay)” value [2] was 5.18e+06 RLU.

B5: L-arginine:glycine amidinotransferase cDNA clone in pACT2 (protein)
chain: ASSRNSCAADDKATEPLPKDCPVSSYNEWDPLEEVIVGRAENACVPPFTIEVKANTYEKYWPFYQKQGGHYFPKDHLKKAVAEIEEMCNILKTEGVTVRRPDPIDWSLKYKTPDFESTGLYSAMPRDILIVVGNEIIEAPMAWRSRFFEYRAYRSIIKDYFHRGAKWTTAPKPTMADELYNQDYPIHSVEDRHKLAAQGKFVTTEFEPCFDAADFIRAGRDIFAQRSQVTNYLGIEWMRRHLAPDYRVHIISFKDPNPMHIDATFNIIGPGIVLSNPDRPCHQIDLFKKAGWTIITPPTPIIPDDHPLWMSSKWLSMNVLMLDEKRVMVDANEVPIQKMFEKLGITTIKVNIRNANSLGGGFHCWTCDVRRRGTLQSYLD
With B5 the “Colour intensity (Filter assay), beta-galactosidase” value [5] was “+/-” and the Mean RLU (Liquid assay), beta-galactosidase activity [5] was 861 RLU.

B6: Htk partial cDNA clone in pACT2 (intracellular region and part of the extracellular domain) (receptor, human, UniProt P54760 436-987, looked up, not shown: large carriers)
chain: AVSDIRVTRSSPSSLSLAWAVPRAPSGAVLDYEVKYHEKGAEGPSSVRFLKTSENRAELRGLKRGASYLVQVRARSEAGYGPFGQEHHSQTQLDESEGWREQLALIAGTAVVGVVLVLVVIVVAVLCLRKQSNGREAEYSDKHGQYLIGHGTKVYIDPFTYEDPNEAVREFAKEIDVSYVKIEEVIGAGEFGEVCRGRLKAPGKKESCVAIKTLKGGYTERQRREFLSEASIMGQFEHPNIIRLEGVVTNSMPVMILTEFMENGALDSFLRLNDGQFTVIQLVGMLRGIASGMRYLAEMSYVHRDLAARNILVNSNLVCKVSDFGLSRFLEENSSDPTYTSSLGGKIPIRWTAPEAIAFRKFTSASDAWSYGIVMWEVMSFGERPYWDMSNQDVINAIEQDYRLPPPPDCPTSLHQLMLDCWQKDRNARPRFPQVVSALDKMIRNPASLKIVARENGGASHPLLDQRQPHYSAFGSVGEWLRAIKMGRYEESFAAAGFGSFELVSQISAEDLLRIGVTLAGHQKKILASVQHMKSQAKPGTPGGTGGPAPQY
In the case of B6, the “Mean RLU (Liquid assay)” value [2] is reported as 186000 RLU.
